Series [1] relates to murine colon carcinoma, Colo 26. Nature of the series: IL-18 and 5-FU combination in syngeneic murine colon cancer model Colo26. Format: in vivo, mouse. The note with it: 5-FU alone or mIL-18 alone. The method, then: This study aimed to evaluate the efficacy of mIL-18 (SEQ ID NO:2) combination therapy with 5-fluorouracil (5-FU), as compared to monotherapy with 5-FU, or mIL-18 (SEQ ID NO:2) alone. Our study was performed in a well established syngeneic subcutaneous model of murine colon carcinoma, Colo 26, in BALB/c mice. The dosing with mIL-18 (SEQ ID NO:2) was performed daily with 10 μg/mouse s.c. on days 10-30 after tumor inoculation. The dosing with 5-FU was performed i.p. twice a week in the ascending dose: 27, 45 and 74 μg/mouse.
The data comparing tumor volumes in different treatment groups were evaluated at a selected representative time-point, and were expressed as mean+/−SD (FIG. 21), and as median+/−range (FIG. 22). The data were first checked for normal distribution (Gaussian approximation), and standard deviation values were compared to make sure that there is an equal variance. […] Therefore, a non-parametric test (Kruskal-Wallis analysis and Dunn's comparison test) was used for the statistical evaluation. […] FIG. 24 (median+/−SD) and FIG. 25 (mean+/−SD) show the effect of IL-18 and 5-FU combination therapy in same Colo26 syngeneic colon tumor model. […]
Survival of mice bearing Colo26 in different treatment groups was plotted in a Kaplan-Meyer survival curve analysis, and evaluated by Logrank test, and is shown in FIG. 26. […]

Series [2] concerns EL-4 T-cell lymphoma. In words: IL-18 combination with doxorubicin in EL-4 T cell lymphoma, survival. Format: in vivo, mouse. The method, then:
Studies were performed in female C57/BL/6 mice. As a general protocol, C57/BL mice were injected I.P. with 0.2 cc of stock EL-4 cells. EL-4 murine T-lymphoma cells were expanded in RPMI w/10% FCS. All animals were randomized to six or seven mice per study group with food and water ad libitum. EL-4 cells were harvested on day 0, counted and implanted I.P. with 5×10^5 EL-4 lymphoma cells. Animals were randomized to treatment groups of 6/7 animals on Day 3. Doxorubicin was administered IV on Days 3 &10, pos-implantation. mIL-18 (SEQ ID NO:2) was administered S.C. on Days 3-16. The animals were observed daily for toxicity and mortality.
All animals tolerated dosing schedule and levels well by gross observation. On day 16, all dosing was terminated, and median vehicle death occurred on day 17.5. All vehicle mice expired between days 16-18 post-implantation. Increase in lifespan was calculated by study group/vehicle group−1×100%. For mIL-18 (SEQ ID NO:2) combination therapy with doxorubicin in EL-4 T cell lymphoma, the data were analyzed with respect to median survival time and increase in lifespan.
The prolongation of life span in response to combinational therapy with mIL-18 (SEQ ID NO:2) and doxorubicin was assessed in the syngeneic tumor model of female C57BI/6 mice bearing EL-4 T-cell lymphoma. […] As described below, when vehicle animals expired (on day 16) all dosing was terminated. […]

Series [3] has as its system NK cells. In words: NK cytotoxicity assay in EL-4 T-cell lymphoma model. The following applies: 21 hours post-treatment (FIG. 12).
For series [4] the following is noted: cited from earlier work.
For series [5], the system named is MOPC-315 plasmacytoma. Nature of the series: IL-18 monotherapy in advanced MOPC-315 plasmacytoma model. Format: in vivo, mouse. The text has this:
Based upon a broad spectrum of immunostimulatory properties, IL-18 has been studied in a variety of preclinical tumor models. […] Further support for IL-18 mediated cellular immunity also comes from immunohistochemistry performed on established MOPC-315 tumors in control and IL-18 treated mice. […] In addition, it seems that an intact Fas/Fas ligand pathway is beneficial to anti-tumor response.

In series [6] the test system is human Ramos B-cell lymphoma line. In words: IL-18 combination therapy with RITUXAN in murine human B-cell lymphoma model. The note with it: first experiment (FIG. 3); mIL-18 single agent 100 μg/dose. It counts as in vivo, mouse.
Protocol: The study was performed in outbred female homozygous SCID mice (ICR-Prkdc^scid) that lack both T and B cells.
Mice were injected with human Ramos B-cell lymphoma line that was originally derived from a patient with Burkitt's lymphoma (ATCC catalogue, CRL 1596). The tumor 1:10 homogenate was inoculated into 6-8 week old mice at the dose 0.5 ml per mouse. […] The therapy was initiated when the median tumor volume per group reached 80-150 mm^3 (at day 12 post tumor inoculation). In addition, those mice that grew a tumor with a volume outside of the set limits were excluded from the study.
The number of animals was increased to n=12, in order to have a better window to measure statistical significance. Tumor volume was measured using the viener calipers two to three times a week.
Series [7] has as its system NK cells.

Read-outs that look alike come from different tables or passages of the source.

Regarding `O=c1[nH]cc(F)c(=O)[nH]1` [5-FU, 5-fluorouracil, reference compound], the “therapeutic effect of monotherapy compared to control” value in series [1] was “did not show a therapeutic effect better than a control”.

Regarding `COc1cccc2c1C(=O)c1c(O)c3c(c(O)c1C2=O)C[C@@](O)(C(=O)CO)C[C@@H]3O[C@H]1C[C@H](N)[C@H](O)[C@H](C)O1` [doxorubicin, reference compound], the increase in lifespan entry in series [2] (doxorubicin monotherapy 12 mg/kg IV days 3 & 10) is “minimal increase in lifespan”. Moreover, the NK cytotoxicity entry in series [3] is on record as “impaired”.

As for “human IL-18: recombinant mature form of human interleukin-18 (SEQ ID NO: 1), expressed in Escherichia coli”, in series [4] (2000 μg/kg administered weekly for up to 24 weeks), the “toxicity at highest dose tested” value is “no significant toxicity”. Moreover, in series [4] (up to 2000 μg/kg weekly for up to 24 weeks), the maximum tolerated dose result was “not identified”.

B1: mIL-18: recombinant murine IL-18 (SEQ ID NO:2), used in the pre-clinical studies (protein)
chain: NFGRLHCTTAVIRNINDQVLFVDKRQPVFEDMTDIDQSASEPQTRLIIYMYKDSEVRGLAVTLSVKDSKMSTLSCKNKIISFEEMDPPENIDDIQSDLIFFQKRVPGHNKMEFESSLYEGHFLACQKEDDAFKLILKKKDENGDKSVMFTLTNLHQS
modifications: Murine
Consider B1, for which the increase in lifespan entry in series [2] (IL-18 monotherapy 1, 5 and 25 ug/dose S.C. days 3-16) is “did not show any increase in lifespan”. Moreover, the tumor response entry in series [5] (5 mg/Kg daily for approximately 30 days, advanced tumor) was “reproducible tumor regressions and cure”. Further, the “tumor response in SCID mice” value in series [5] (SCIDs bearing advanced MOPC-315 tumors, similar schedule) is given as “failed to regress”. The “rechallenge with parental tumor” value in series [5] (after cure with IL-18) is given as “tumor rejection”. Also, the anti-tumor activity result in series [6] is on record as “no activity”. In addition, in series [7], the NK cytotoxicity result is listed as “robust NK cytotoxicity”. Moreover, in series [1], the “therapeutic effect of monotherapy compared to control” value was “did not show a therapeutic effect better than a control”.

Source of the values: patent US20090035258A1, “METHODS OF TREATING CANCER BY ADMINISTERING HUMAN IL-18 COMBINATIONS” (priority 2007, published 2009).
